Results reported in paper doi:10.1101/323055.

Target: TmFtsH_(184,513), double Cys variant of His6-(Δtm)TmFtsH(147–610) (Thermotoga maritima) (UniProt Q9WZ49)

Kd: 400 nM
Substance: TmFtsH_(184,513), double Cys variant of His6-(Δtm)TmFtsH(147–610) (from UniProt Q9WZ49 147-610) (enzyme)
